This is an account of results in US20160208003A1 (AFFITECH RESEARCH, published 2016).

As usually defined, the Kd is the concentration at which binding is half-saturated. For orientation: EC50 (read off the curve) means the concentration that produces a half-maximal response. Read a low EC50 (read off the curve) as a more potent agent.

Assay [1] addresses T1, human CC chemokine receptor 4 (CCR4) (human, UniProt P51679 1-360).
T1 construct: whole, on cells; Always presented on cells; also called CD194; human CCR4
T1 sequence (looked up): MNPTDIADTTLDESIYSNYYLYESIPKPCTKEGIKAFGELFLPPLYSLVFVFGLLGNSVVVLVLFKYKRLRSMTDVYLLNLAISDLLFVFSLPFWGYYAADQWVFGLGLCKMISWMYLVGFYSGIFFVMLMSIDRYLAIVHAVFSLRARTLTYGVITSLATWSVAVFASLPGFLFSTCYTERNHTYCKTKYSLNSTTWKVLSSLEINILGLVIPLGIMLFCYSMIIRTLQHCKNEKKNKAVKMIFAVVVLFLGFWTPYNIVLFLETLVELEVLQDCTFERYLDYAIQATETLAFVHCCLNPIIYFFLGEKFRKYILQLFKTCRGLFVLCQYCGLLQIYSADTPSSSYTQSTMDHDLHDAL
The assay can be described thus: flow cytometry, IgG titration on CCR4+ DT40 cells; one site-specific binding fit (Prism). Here is the method:
The IgG forms of antibodies 17G, 9E and KM3060var using various CCR4⁺ cell types were used (see Example 2).
(§1) For the flow cytometry experiments, the cells were harvested from the culture flasks, washed 2 times with PBS, re-suspended in PBS with 0.2% BSA and 0.09% NaN₃ and finally aliquoted 1×10⁵ cells per well into V-shaped 96-well plates (Greiner Bio-One, Frickenhausen, Germany). Cells were centrifuged at 400×g for 5 min and then incubated at 4° C. for 45 min with different antibody dilutions.
(§2) After washing with PBS with 0.2% BSA and 0.09% NaN₃, the cells were stained with 10 μg/ml of RPE-conjugated goat anti-human IgG (AbDSerotec, Düsseldorf, Germany) for 30 minutes at 4° C. The stained cells were washed, re-suspended in 200 μl PBS with 0.2% BSA and 0.09% NaN₃ and transferred to a U-shaped 96-well plate (Corning, Schiphol-Rijk, The Netherlands) for acquisition on EasyCyte flow cytometer (Guava Technologies, Hayward, Calif., USA).

For assay [2], the target named is T1, human CC chemokine receptor 4 (CCR4). Kind of assay: flow cytometry, IgG titration on CCRF-CEM cells (natural CCR4+), triplicates, RPE goat anti-human IgG, Median (YLW-HLog).
Description: As a positive control, in-house cloned and expressed KM3060var IgG which is specific for an epitope present in positions 2-29 in N-terminal part of human CCR4 (EP1270595) was used. An anti-GFP antibody (raised against the green fluorescent protein) or the anti-VZV antibody (raised against Varicella zoster virus) were used as negative controls (anti-GFP both as scFv and IgG, while anti-VZV only as scFv).
as §1, §2
(Flow cytometry measures light scatter and fluorescence of single cells or particles in a stream.)

For assay [3] the target is unchanged. The assay can be described thus: competition flow cytometry on CCR4-transfected DT40 cells: unlabelled IgG against 7 nM biotinylated 9E IgG, streptavidin-RPE. The procedure:
To analyze the epitope binding of anti-CCR4 antibodies 17G, 9E and KM3060var, competition experiments were performed using flow cytometry. The binding of biotinylated antibodies to CCR4 transfected DT40-cells was challenged in the presence of different concentrations of non-biotinylated anti-CCR4 antibodies. The CCR4⁺ DT40 cells were harvested from culture flasks, washed 2 times with PBS, re-suspended in PBS with 0.2% BSA and 0.09% NaN₃ and finally aliquoted 1×10⁵ cells per well into V-shaped 96-well plates (Greiner Bio-One, Frickenhausen, Germany). Cells were centrifuged at 400×g for 5 min and then incubated at 4° C. for 3-4 hours with fixed amounts of biotinylated IgG and different concentrations of non-biotinylated antibodies. After washing with PBS with 0.2% BSA and 0.09% NaN₃, the cells were stained with 2.5 μg/ml of Streptavidin—RPE (BD Pharmingen, San Diego, Calif., USA) for 30 minutes at 4° C. The stained cells were washed, re-suspended in 250 μl PBS with 0.2% BSA and 0.09% NaN₃ and transferred to a U-shaped 96-well plate (Corning, Schiphol-Rijk, The Netherlands) for acquisition on EasyCyte flow cytometer (Guava Technologies, Hayward, Calif., USA). The results shown in FIGS. 10 A, B and C illustrate that the 17G and 9E antibodies have epitopes that are identical or at least overlapping.

B1: 9E IgG (full length human IgG1, lambda) (antibody, V domains shown)
VH: QVQLVQSGAEVKKPGSSVKVSCKASGGTFSNYAISWVRQAPGQGLEWMGGIIPIFGTANYAQKFQGRVTITADESTSTAYMELSSLRSEDTAVYYCARRGGSYFDYWGQGTLVTVSS
VL: SYVLTQPPSASGTPGQSVTISCSGSTSNIGSHYVFWYQQLPGTAPRLLIYRNHQRPSGVPDRLSGSKSGTSASLAISGLRSEDEADYYCAVWDDTLSGWVFGGGTKLTVLG
notes: also called IgG 9E; IgG1 9E
Consider B1, for which binding in assay [1] was characterised by a dissociation constant (Kd) of 0.72 nM. Besides, the “EC50 (read off the curve)” value in assay [2] was ~0.4 nM. In addition, the “IC50 (read off the curve)” value in assay [3] is ~3 nM.
